Assay results from the PETadex activity labels.

B1: unnamed (protein)
chain: MFGKLPFARASLAVGALLLSAAAVAQTNPYQRGPDPTVSSLEATRGPFSTSSFTVSRPSGYGAGTVYYPTNAGGKVGAIAVVPGYTARQSSINWWGPRLASHGFVVITIDTNSTLDQPSSRSSQQMAALRQVVSLAGTSSSPIYNKVDTARLGVMGWSMGGGGSLISAKNNPSLRAAAPQAPWAQESFSSVTVPTLIVSCENDSIAPNSSHSFPFYNQMTRNKKANLVINGGSHSCANSGNSDAGLIGKYGVAWMKRFMDDDTRYSKFLCGAEHQADLSKRAVEAYKENCPY
B2: unnamed (protein)
chain: MTHQIVTTQYGKIKGTTENGVHKWKGIPYAKPPVGQWRFKAPEPPEVWEDVLDATAYGPVCPQPSDLLSLSYAELPRQSEDCLYVNVFAPDTPSQNLPVMVWIHGGAFYLGAGSEPLYDGSKLAAQGEVIVVTLNYRLGPFGFLHMSSFDEAYSDNLGLLDQAAALKWVRENISAFGGDPNNVTVFGESAGGMSIAALLAMPAAKGLFQKAIMESGASRTMTKEQAASTAAAFLQVLGINESQMDRLHTVAAEDLLKAADQLRIAEKENIFQLFFQPALDPKTLPAEPEKAIAEGAASGIPLLIGTTRDEGYLFFTPDSDVHSQETLDAALEYLLGKPLAEKAADLYPRSLESQIHMMTDLLFWRPAVAYASAQSHYAPVWMYRFDWHPEKPPYNKAFHALELPFVFGNAEVTDEVKQLSHSIQTAWITFAKTGNPSTEAVNWPAYQEETRETLILDSKITIENDPESEKRQKLFPSKGEAALEHHHHHH
B3: unnamed (protein)
chain: MTHQIVTTQYGKIKGTTENGVHKWKGIPYAKPPVGQWRFKAPEPPEVWEDVLDATAYGPVCPQPSDLLSLSYAELPRQSEDCLYVNVFAPDTPSQNLPVMVWIHGGAFYLGAGSEPLYDGSKLAAQGEVIVVTLNYRLGPFGFLHMSSFDEAYSDNLGLLDQAAALKWVRENISAFGGDPNNVTVFGESAGGMSIAALLAMPAAKGLFQKAIMESGASRTMTKEQAASTAAAFLQVLGINESQMDRLHTVAAEDLLKAADQLRIAEKENIFQLFFQPALDPKTLPAEPEKAIAEGAASGIPLLIGTTRDEGYLFFTPDSDVHSQETLDAALEYLLGKPLAEKAADLYPRSLESQIHMMTDLLFWRPAVAYASAQSHYAPVWMYRFDWHPEKPPYNKAFHALELPFVFGNLDGLERMAKAEVTDEVKQLSHSIQTAWITFAKTGNPSTEAVNWPAYQEETRETLILDSKITIENDPESEKRQKLFPSKGEAALEHHHHHH
B4: unnamed (protein)
chain: MAVMTPRRERSSLLSRALQVTAAAATALVTAVSLAAPAHAANPYERGPNPTDALLEASSGPFSVSEENVSRLSASGFGGGTIYYPRENNTYGAVAISPGYTGTEASIAWLGERIASHGFVVITIDTITTLDQPDSRAEQLNAALNHMINRASSTVRSRIDSSRLAVMGHSMGGGGTLRLASQRPDLKAAIPLTPWHLNKNWSSVTVPTLIIGADLDTIAPVATHAKPFYNSLPSSISKAYLELDGATHFAPNIPNKIIGKYSVAWLKRFVDNDTRYTQFLCPGPRDGLFGEVEEYRSTCPF
B5: unnamed (protein)
chain: MESQVRGGTRWKRFAVVMVPSVAATAAIGVALAQGALAASFSVSGQSFKVTAQELNGTGFSQYGAIDQGYTLSGEKTAHPVAVSVFDTARIQKMCQSVVTPNIPLLGSVSLTLTAGDSADPEKQVNAKNLYIDVEDLGADAEFTNIDIGVAGKDISQGPGMKAGEVQKKQANPYGFAQQAEKAKLTDVKQTAWATTAGTFKLPGLKMKLQTGTHECY
B6: unnamed (protein)
chain: MERTVVETRYGRLRGGTNESVFVWKGIPYAKAPVGERRFLPPEPPDAWDGVREAAAFGPVVMQPSDPIFSGLLGRMSEAPSEDGLYLNIWSPAADGKKRPVLFWIHGGAFLFGSGSSPWYDGTAFAKHGDVVVVTINYRMNVFGFLHLGDLFGEAYAQAGNLGILDQVAALRWVKENIEAFGGDPDNITIFGESAGAASVGVLLSLSEASGLFRRAILQSGSGALLLRSPKTAMAMTERILERAGIRPGDRGRLLSIPSEELLRSALSLGPGIMYGPVVDGRVLRRHPIEALCDGAASGIPILIGVTKDEYNLFTLTDPSWTKLGEKELLDRINREVGPVPEAAIRYYAETAEPSAPDWQTWLRIMTYRVFVEGMLRTADAQAAHGADVYMYRFDYETPVFGGQLKACHALELPFVFHNLHQPGVANFVGNRPEREAIANEMHYAWLSFARTGDPNGDHLPEAWPAYTSERKAAFVFSAASHVEDDPFGRERAAWMTRT
B7: unnamed (protein)
chain: MFNQIGKKSALSLMAAGSLMFSATALAIGGGGSGGGNNGGGGGCEADCGYERGPDPSVSLLEASTGPFSVRTSNVSSSVRGFGGGTIHYPTNTTGTMAAIVVIPGFVSPESSIAWWGPKLASHGFVVMTIGTNSGFDQPASRASQLNNALDYLIEQNGSSRSPINGMIDTDRLGVMGWSMGGGGTLRVATEGRVSAAIPLAPWDSSSSQFRSIDTPTLIFACENDSTAPVRSHADPFYDAIPDSTAKAFVELDGGGHTCANGSSGFGGSYNDVLSRLGVSWMKLHLDKDQRYNQFVCGPNHESDRSISEYRGTCPY
B8: unnamed (protein)
chain: MAKEILVAYGVDIDAVAGWLGSYGGEDSPDDISRGLFAGEVGIPRLLKLFKKYHLPATWFSPGHSIETFSEQMKMIVDAGHEVGAHGYSHENPIAMTAKQEEDVLLKSVELIKDLTGKAPTGYVAPWWEFSNITNELLLKHGFKYDHSLMHNDFTPYYVRVGDSWSKIDYSLEAKDWMKPLIRGVETDLVEIPANWYLDDLPPMMFIKKSPNSFGFVSPHDIGQMWIDQFDWVYREMDYAVFSMTIHPDVSARPQVLLMHEKIIEHINKHEGVRWVTFNEIADDFLKRNPRKK
B9: unnamed (protein)
chain: MNFPRASRLMQAAVLGGLMAVSAAATAQTNPYARGPNPTAASLEASAGPFTVRSFTVSRPSGYGAGTVYYPTNAGGTVGAIAIVPGYTARQSSIKWWGPRLASHGFVVITIDTNSTLDQPSSRSSQQMAALRQVASLNGTSSSPIYGKVDTARMGVMGWSMGGGGSLISAANNPSLKAAAPQAPWDSSTNFSSVTVPTLIFACENDSIAPVNSSALPIYDSMSRNAKQFLEINGGSHSCANSGNSNQALIGKKGVAWMKRFMDNDTRYSTFACENPNSTRVSDFRTANCS
B10: unnamed (protein)
chain: MKEGKHFVLVHGACHGGWSWYKLKPLLEAAGHKVTALDLAASGTDLRKIEELRTLYDYTLPLMELMESLSADEKVILVGHSLGGMNLGLAMEKYPQKIYAAVFLAAFMPDSVHNSSFVLEQYNERTPAENWLDTQFLPYGSPEEPLTSMFFGPKFLAHKLYQLCSPEDLALASSLVRPSSLFMEDLSKAKYFTDERFGSVKRVYIVCTEDKGIPEEFQRWQIDNIGVTEAIEIKGADHMAMLCEPQKLCASLLEIAHKYN
B11: unnamed (protein)
chain: MKEGKHFVLVHTACHGGWSWYKLKPLLEAAGHKVTALDLAASGTDLRKIEELRTLYDYTLPLMELMESLSADEKVILVGHSLGGMNLGLAMEKYPQKIYAAVFLAAFMPDSVHNSSFVLEQYNERTPAENWLDTQFLPYGSPEEPLTSMFFGPKFLAHKLYQLCSPEDLALASSLVRPSSLFMEDLSKAKYFTDERFGSVKRVYIVCTEDKGIPEEFQRWQIDNIGVTEAIEIKGADHKAMLCEPQKLCASLLEIAHKYN
B12: unnamed (protein)
chain: MKEGKHFVLVHTACHGGWSWYKLKPLLEAAGHKVTALDLAASGTDLRKIEELRTLYDYTLPLMELMESLSADEKVILVGHSLGGMNLGLAMEKYPQKIYAAVFLAAFMPDSVHNSSFVLEQYNERTPAENWLDTQFLPYGSPEEPLTSMFFGPKFLAHKLYQLCSPEDLALASSLVRPSSLFMEDLSKAKYFTDERFGSVKRVYIVCTEDKGIPEEFQRWQIDNIGVTEAIEIKGADHMAMLCEPQKLCASLLEIAHKYN

The proteins below were run on BHET. Conditions: 48.5 °C.

| Protein | kcat |
| --- | --- |
| B1 | 28.5 s⁻¹ |

Same assay, conditions: pH 7.5; 30 °C

| Protein | Km | kcat | kcat/Km |
| --- | --- | --- | --- |
| B2 | 80 µM | 102 s⁻¹ | 1.28e+06 s⁻¹ M⁻¹ |
| B3 | 100 µM | 37.7 s⁻¹ | 377000 s⁻¹ M⁻¹ |

Same assay, conditions: pH 8.5; 60 °C

| Protein | Km | kcat | kcat/Km |
| --- | --- | --- | --- |
| B4 | 39700 µM | 26.8 s⁻¹ | 674 s⁻¹ M⁻¹ |

The proteins below were run on MHET. Conditions: pH 8.5; 60 °C.

| Protein | Km | kcat | kcat/Km |
| --- | --- | --- | --- |
| B4 | 7.33 mM | 0.31 s⁻¹ | 42.3 s⁻¹ M⁻¹ |

Each protein was assayed on p-NP-C4. Conditions: pH 8; 20 °C.

| Protein | Km | kcat | kcat/Km |
| --- | --- | --- | --- |
| B4 | 312 µM | 304 s⁻¹ | 973000 s⁻¹ M⁻¹ |

Same assay, conditions: pH 8; 60 °C

| Protein | Km | kcat | kcat/Km |
| --- | --- | --- | --- |
| B4 | 505 µM | 742 s⁻¹ | 1.47e+06 s⁻¹ M⁻¹ |

The proteins below were run on p-NP-C12. Conditions: pH 7; 37 °C.

| Protein | Km | kcat | kcat/Km |
| --- | --- | --- | --- |
| B5 | 0.0043 M | 1.4 s⁻¹ | 326 s⁻¹ M⁻¹ |

What follows are proteins tested on p-NP-C14. Conditions: pH 7; 37 °C.

| Protein | Km | kcat | kcat/Km |
| --- | --- | --- | --- |
| B5 | 1.1 mM | 4.5 s⁻¹ | 4090 s⁻¹ M⁻¹ |

These proteins were tested on p-NP-C16. Conditions: pH 7; 37 °C.

| Protein | Km | kcat | kcat/Km |
| --- | --- | --- | --- |
| B5 | 2.1 mM | 2.9 s⁻¹ | 1380 s⁻¹ M⁻¹ |

Each protein was assayed on p-NP-C12. Conditions: pH 7.4; 60 °C.

| Protein | Km | kcat | kcat/Km |
| --- | --- | --- | --- |
| B6 | 0.0228 M | 0.993 s⁻¹ | 43.7 s⁻¹ M⁻¹ |

These proteins were tested on p-NP-C2. Conditions: 20 °C.

| Protein | Km | kcat | kcat/Km |
| --- | --- | --- | --- |
| B7 | 2.1 mM | 4.74 s⁻¹ | 2260 s⁻¹ M⁻¹ |

Same assay, conditions: pH 6; 30 °C

| Protein | Km | kcat | kcat/Km |
| --- | --- | --- | --- |
| B8 | 0.18 mM | 20.2 s⁻¹ | 112000 s⁻¹ M⁻¹ |

Same assay, conditions: pH 7; 30 °C; part of the chain shown

| Protein | Km | kcat | kcat/Km |
| --- | --- | --- | --- |
| B9 | 4.6 mM | 27 s⁻¹ | 5870 s⁻¹ M⁻¹ |

Same assay, conditions: pH 7.2; 25 °C

| Protein | Km | kcat | kcat/Km |
| --- | --- | --- | --- |
| B10 | 1.4 mM | 2 s⁻¹ | 1430 s⁻¹ M⁻¹ |
| B11 | 7.6 mM | 0.025 s⁻¹ | 3.29 s⁻¹ M⁻¹ |
| B12 | 8.7 mM | 0.0283 s⁻¹ | 3.26 s⁻¹ M⁻¹ |
